Measurements taken from patent US20080200654A1 (KIRIN PHARMA, published 2008).

T1: A33 antigen (full-length human A33) (human, UniProt Q99795 22-319)
T1 construct: Class I cell membrane protein of the Ig superfamily; also called GPA33; human A33 antigen
T1 sequence: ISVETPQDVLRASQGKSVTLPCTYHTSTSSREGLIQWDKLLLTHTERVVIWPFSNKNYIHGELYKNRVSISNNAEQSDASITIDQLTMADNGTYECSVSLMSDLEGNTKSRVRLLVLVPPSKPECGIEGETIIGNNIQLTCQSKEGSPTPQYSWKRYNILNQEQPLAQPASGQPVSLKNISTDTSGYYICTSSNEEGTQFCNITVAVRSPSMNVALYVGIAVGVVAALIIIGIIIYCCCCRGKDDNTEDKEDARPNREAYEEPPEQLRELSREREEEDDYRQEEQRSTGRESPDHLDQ


Assays:
[1] = target: T1, A33 antigen (full-length human A33); assay: FCM competition on COLO205 cells; antibody 1 µg/ml, competitor mouse anti-A33 antibody 100 µg/ml
Experimental: Whether or not each type of purified monoclonal antibody obtained in Example 8 recognizes an epitope similar to that of the mouse anti-A33 antibody was examined by a competition test using FCM. The COLO205 cell line was suspended at a concentration of 2×10⁶/ml in a PBS Staining Buffer (SB) containing 0.1% NaN₃ and 2% FCS. The cell suspension (50 μl/well) was dispensed in a 96-well round bottom plate (produced by Becton, Dickinson and Company). The purified mouse anti-A33 antibody prepared in Example 1 was not added or added at a concentration of 100 μg/ml to the wells containing each type of purified monoclonal antibody (1 μg/ml and 50 μl), followed by 30 minutes of incubation on ice. A mouse negative control (containing no purified anti-A33 antibody added thereto) was prepared as follows. A human IgG1 antibody (produced by Sigma) was adjusted at a concentration of 1 μg/ml with SB and then 50 μl of the solution was added, followed by 30 minutes of incubation on ice. The resultant was washed twice with SB and then 50 μl of FITC fluorescence-labeled goat anti-human IgG F(ab′)₂ antibody (produced by IBL) was added, followed by 30 minutes of incubation on ice. The resultant was washed once with SB and then the resultant was suspended in 300 μl of a FACS buffer. The mean fluorescence intensity of each cell line was measured by FACS (FACScan produced by Becton, Dickinson and Company). The inhibition (%) between each type of purified monoclonal antibody and the mouse A33 antibody was calculated by the following formula: […]

[2] = target: T1, A33 antigen (full-length human A33); assay: FCM on NCI-H508 cells; grade = ng/ml to reach half MFI 125 (+++ 10<=x<100, ++ 100<=x<1000, + 1000<=x<10000)
Text: (§1) The reactivity of each type of purified monoclonal antibody obtained in Example 8 to A33-antigen-expressing human colorectal cancer cell line COLO205 cells, LoVo cells (ATCC No. CCL-229), LS174T cells (ATCC No. CL-188), and NCI-H508 cells (ATCC No. CCL-253) was examined by FCM. Human colorectal cancer cell line HT-29 cells (ATCC No. HTB-38) expressing no A33 antigen were also examined as negative control cells. Each cell line was suspended at a concentration of 2×10⁶/ml in a PBS Staining Buffer (SB) containing 0.1% NaN₃ and 2% FCS. The cell suspension (50 μl/well) was dispensed in a 96-well round bottom plate (produced by Becton, Dickinson and Company). 50 μl of each type of purified monoclonal antibody (adjusted using SB at a concentration of 2000, 400, 80, or 16 ng/ml) was added, and then incubation was performed on ice for 30 minutes. A negative control was prepared depending on each subclass. Specifically, a human IgG1 antibody (produced by Sigma) was adjusted using SB at a concentration of 2000, 400, 80, or 16 ng/ml. 50 μl of the solution was added, followed by 30 minutes of incubation on ice. The resultant was washed twice with SB and then 50 μl of an FITC fluorescence-labeled goat anti-human IgG F(ab′)₂ antibody (produced by Southern Biotech), followed by 30 minutes of incubation on ice. The resultant was washed once with SB and then the resultant was suspended in 300 μl of a FACS buffer. The mean fluorescence intensity of each cell line was measured by FACS (FACScan produced by Becton, Dickinson and Company).
(§2) For COLO205 cells, the half value of the mean fluorescence intensity was determined to be 90. For LoVo cells, the half value of the mean fluorescence intensity was determined to be 25. […] When an antibody concentration required to reach such value was 10<=x<100 ng/ml, the reactivity was represented by +++, when the same was 100<=x<1000 ng/ml, the reactivity was represented by ++, and when the same was 1000<=x<10000 ng/ml, the reactivity was represented by +. When no binding was observed, the reactivity was represented by −.

[3] = target: T1, A33 antigen (full-length human A33); assay: FCM on COLO205 cells; grade = ng/ml to reach half MFI 90 (+++ 10<=x<100, ++ 100<=x<1000, + 1000<=x<10000)
Text: as §1, §2

[4] = target: T1, A33 antigen (full-length human A33); assay: FCM on LoVo cells; grade = ng/ml to reach half MFI 25 (+++ 10<=x<100, ++ 100<=x<1000, + 1000<=x<10000)
Text: as §1, §2

[5] = target: T1, A33 antigen (full-length human A33); assay: FCM on LS174T cells; grade = ng/ml to reach half MFI 125 (+++ 10<=x<100, ++ 100<=x<1000, + 1000<=x<10000)
Text: as §1, §2

| Binder | Inhibition (%) [1] | antibody concentration required to reach half value of mean fluorescence intensity [2] | antibody concentration required to reach half value of mean fluorescence intensity [3] | antibody concentration required to reach half value of mean fluorescence intensity [4] | antibody concentration required to reach half value of mean fluorescence intensity [5] |
| --- | --- | --- | --- | --- | --- |
| 125Q54AAAA (antibody, V domains shown, Human IgG1 kappa antibody purified from the hybridoma (FERM BP-10105); also called 125Q54AAAA antibody) VH: EVQLLESGGGLVQPGGSLRLSCAASGFTFSSYAMSWVRQAPGKGLEWVSDISGSGGYTYYADSVKGRFTISRDNSKNTLYLQMNSLRAEDTAVYYCAKTGDGSGSYSPDSWGQGTLVTVSS VL: DIQMTQSPSSLSASVGDRVTITCRASQGISRWLAWYQQKPEKAPKSLIYAASSLQSGVPSRFSGSGSGTDFTLTISSLQPEDFATYYCQQYNSYPYTFGQGTKLEIK | 46.5% | 100 to 1000 ng/mL | 10 to 100 ng/mL | 10 to 100 ng/mL | 100 to 1000 ng/mL |
| 125R5AAAA (antibody, V domains shown, Human IgG1 kappa antibody purified from the hybridoma (FERM BP-10103); also called 125R5AAAA antibody) VH: EVQLLESGGGLVQPGGSLRLSCAASGFTFSSYAMSWVRQAPGKGLEWVSDISGSGGYTYYADSVKGRFTISRDNSKKTLYLQMNSLRAEDTAVYYCAKTGDGSGSYSPDYWGQGTLVTVSS VL: DIQMTQSPSSLSASVGDRVTITCRASQGISSWLAWYQQKPEKAPKSLIYAASSLQSGVPSRFSGSGSGTDFTLTISSLQPEDFATYYCQQYNSYPYTFGQGTKLEIK | 63.9% | 100 to 1000 ng/mL | 10 to 100 ng/mL | 10 to 100 ng/mL | 100 to 1000 ng/mL |
| 125Q47BA (antibody, V domains shown, Human IgG1 kappa antibody purified from the hybridoma (FERM BP-10104); also called 125Q47BA antibody) VH: EVQLLESGGGLVQPGGSLRLSCAASGFTFSSYAMTWVRQAPGKGLEWVSDISGSGGYTYYADSVKGRFTISRDNSKNTLYLQMNSLRAEDTAVYYCAKTGAGSGSYSPDSWGQGTLVTVSS VL: DIQMTQSPSSLSASVGDRVTITCRASQGISSWLAWYQQKPEKAPKSLIYAASSLQSGVPSRFSGSGSGTDFTLTISSLQPEDFATYYCQQYNSYPYTFGQGTKLEIK | 64.1% | 100 to 1000 ng/mL | 10 to 100 ng/mL | 10 to 100 ng/mL | 100 to 1000 ng/mL |
| 263A17 (antibody, V domains shown, Human IgG1 kappa antibody purified from the hybridoma; also called 263A17 antibody) VH: EVQLLESGGGLVQPGGSLRLSCAASGFTFSSYAMSWIRQAPGKGLEWVSAISASGGSTYYADSVKGRFTISRDNSKNTLYLQMNSLRAEDTAVYYCAKDRIVGATNYYYGMDVWGQGTTVTVSS VL: DIQMTQSPPSVSASVGDRVTITCRASQGISSWLAWYQHKPGKAPKLLIYGASSLQSGVPSRFSGSGSGTDFTLTISSLQPEDFATYYCQQANSFPITFGQGTRLEIK | 3.7% | 100 to 1000 ng/mL | 100 to 1000 ng/mL | 100 to 1000 ng/mL | 100 to 1000 ng/mL |
| 125N26F6AA (antibody, human IgG1, kappa, V domains shown, Human IgG1 kappa antibody purified from hybridoma 125N26F6AA (FERM BP-10109); also called 125N26F6AA antibody) VH: QVQLVESGGGVVQPGRSLRLSCAASGFTFSHYGMHWVRQAPGKGLEWVALIWYDGSNKYYADSVKGRFTISRDNSKNTLYLQMNSLRAEDTAVYYCARDPLAAGTSYFDYWGQGTLVTVSS VL: EIVLTQSPDFQSVTPKEKVTITCRASQSIGSSLHWYQQKPDQSPKLLIKYASQSFSGVPSRFSGSGSGTDFTLTINSLEAEDAAAYYCHQSSSLPFTFGPGTKVDIKR | 98% | 100 to 1000 ng/mL | 10 to 100 ng/mL | 10 to 100 ng/mL | 100 to 1000 ng/mL |
| 125M10AA (antibody, human IgG1, kappa, V domains shown, Human IgG1 kappa antibody purified from hybridoma 125M10AA (FERM BP-10107); also called 125M10AA antibody) VH: QLQVQESGPGLVKPSETLSLICTVSGGSIRTSGYYWGWFRQPPGKGLEWIGTSHNSGSTYYNPSLKSRVTISVDTSKNQFSLKLNSVTAADTAVYYCARQGYDFKVNIDVWGQGTTVTVSS VL: EIVLTQSPATLSLSPGERATLSCRASQSVSSYLAWYQQKPGQAPRLLIYDASNRATGIPARFSGSGSGTDFTLTISSLEPEDFAVYYCQQRSNWPLTFGGGTKVEIKR | 5% | 10 to 100 ng/mL | 10 to 100 ng/mL | 10 to 100 ng/mL | 10 to 100 ng/mL |
| 125M165DAAA (antibody, V domains shown, Human IgG1 kappa antibody purified from the hybridoma (FERM BP-10106); also called 125M165DAAA antibody) VH: QVQLVESGGGVVQPGRSLRLSCAASGFTFSYYGMHWVRQAPGKGLEWVAVIWYDGSNKYYADSVKGRFTISRDNSKKTLYLQMNSLRAEDTAVYYCARDGHSSGWGDFQHWGQGTLVTVSS VL: EIVLTQSPATLSLSPGERATLSCRASQSVSSSLAWYQQKPGQAPRLLIYDASNRATGIPARFSGSGSGTDFTLTISSLEPEDFAIYYCQQRSNWPPTFGQGTKVEIK | 96% | 100 to 1000 ng/mL | 10 to 100 ng/mL | 10 to 100 ng/mL | 100 to 1000 ng/mL |
| 125M96ABA (antibody, V domains shown, Human IgG1 kappa antibody purified from the hybridoma (FERM BP-10108); also called 125M96ABA antibody) VH: QLQLQESGPGLVKPSETLSLTCTVSGGSISTSSYYWGWIRQPPGKGLEWIGTIYYNGSTYYSPSLKSRVSISVDTSKNQFSLKLSSVTAADTSVYYCARQGYDIKINIDVWGQGTTVTVSS VL: EIVLTQSPATLSLSPGERATLSCRASQSVSSYLAWYQQKPGQAPRLLIYVASNRATGIPARFSGSGSGTDFTLTISSLEPEDFAVYYCQQRSNWPLTFGGGTKVEIK | 22.8% | 100 to 1000 ng/mL | 10 to 100 ng/mL | 10 to 100 ng/mL | 100 to 1000 ng/mL |
